Positions count from the first letter of the chain named. pKd: −log10 of the molar value.
What was measured:
Assay in all cases: EMSA
[1] = system: T1, MBNL-N-M12 F36A;Y68A, Q9NR56-5; conditions: no stable complex up to 2 uM; EMSA: 10 mM HEPES pH 7.9, 3 mM MgCl2, 10 uM ZnCl2, 5% glycerol, 1 mM DTT, 20 ug/ml rRNA, 10 fmol RNA in 5 ul, 30 C 15 min, then heparin 5 min; 5% PAGE at 4 C …
T1 sequence: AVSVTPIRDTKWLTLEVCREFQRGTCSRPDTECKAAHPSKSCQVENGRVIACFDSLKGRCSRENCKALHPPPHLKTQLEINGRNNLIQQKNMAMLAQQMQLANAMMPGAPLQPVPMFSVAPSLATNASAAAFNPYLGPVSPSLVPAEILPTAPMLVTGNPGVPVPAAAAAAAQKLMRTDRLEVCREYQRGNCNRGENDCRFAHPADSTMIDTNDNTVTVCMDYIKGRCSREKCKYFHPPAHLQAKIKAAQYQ

[2] = system: T2, MBNL-N-M34 F202A;Y236A, Q9NR56-5; conditions: EMSA: 10 mM HEPES pH 7.9, 3 mM MgCl2, 10 uM ZnCl2, 5% glycerol, 1 mM DTT, 20 ug/ml rRNA, 10 fmol RNA in 5 ul, 30 C 15 min, then heparin 5 min; 5% PAGE at 4 C …
T2 sequence: T1 sequence with A35F, A67Y, F201A, Y235A

MBNL1-2-72, Q9NR56-5 = system: T3, MBNL1-2-72, Q9NR56-5; conditions: no binding at any concentration (up to 2000 nM); EMSA: 10 mM HEPES pH 7.9, 3 mM MgCl2, 10 uM ZnCl2, 5% glycerol, 1 mM DTT, 20 ug/ml rRNA, 10 fmol RNA in 5 ul, 30 C 15 min, then heparin 5 min; 5% PAGE at 4 C …
T3 sequence: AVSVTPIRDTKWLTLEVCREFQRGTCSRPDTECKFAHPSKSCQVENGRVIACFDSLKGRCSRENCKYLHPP

GGGAGACAAGCUUAAGUCUACGCACCCUCAACCCGCACCUUGCGGGAUCACGCUGCCUGCUGCACCCCACCCCCUUCCCCCUUCCUUCCCCCCACCCCCGUACUCCACUGCCAACUCCCAG [Tpm1 URE RNA]
pKd [1]: < 5.70
fold decrease in binding affinity vs WT (fold lower affinity than WT MBNL1-N) [2]: 20
pKd (MBNL1-2-72, Q9NR56-5): < 5.70

GGGAGACAAGCUUGAGCUGGAUGCCGCCUCUGCUGCUGC [Tpm1 Dugc RNA]
pKd [1]: < 5.70
fold decrease in binding affinity vs WT (fold lower affinity than WT MBNL1-N) [2]: 20
pKd (MBNL1-2-72, Q9NR56-5): < 5.70

GGGAGACAAGCUUUGCAAACUGUUAAUCUCAACUAACUGCCGCUUAAAUAAUUAGUGCAGCUUUUAACUACUGGUUCUGUCCCAACUGGCUACUUGUGCCUAAAGCCCAAAGAAUU [Vldlr RNA]
pKd [1]: < 5.70
fold decrease in binding affinity vs WT (fold lower affinity than WT MBNL1-N) [2]: 20
pKd (MBNL1-2-72, Q9NR56-5): < 5.70

From PMC3880588
